Experimental data taken from PMC7673715.

Target: MyoVa^GTD (mouse) (UniProt Q99104)
Assay: ITC

fold higher affinity than MICAL1^GTBM: 25 fold
Substance: Spir2^GTBM (domain or fragment)
